Assay: yeast display, Sf9 membrane polyspecificity reagent, FACS + sequencing; frameworks hold sequencing errors
Method in brief: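 Synthetic nanobody libraries on Saccharomyces cerevisiae BJ5465 were galactose-induced for 36–48 hours, stained 1 hour at 4 °C with 10% biotinylated, detergent-solubilized Sf9 membrane reagent and enriched on streptavidin microbeads. FACS then separated cells into low and high (top ~1%) gates by anti-HA (expression) and streptavidin (reagent binding) fluorescence. Genes were colony-PCR amplified, MiSeq 2 × 250 sequenced and CDR-length filtered. A clone's polyreactivity label is that of its gate of origin.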
With “QVQLVESGGGVVQAGGSLRLSCAASGRTYGYNAMGWYRPAPGTERELVAAITKSGVSTYYADSVKGRFTISRDNAKNTVYLQMNSLKPEDTAVYYCAVDSYYYSMDYWGQGTQVTVSS” the “polyreactivity (PSR sort gate)” value was “high polyreactivity”.
With “QVQLVESGGGVVQAGGSLRLSCAASGSIFLGNAMGWYRPAPGKERELVAAITWSGGSTYYADSVKGRFTISRDNAKNTVYLQMNSLKPEDTAVYYCNAYSYVAIRDGGDYWGQGTLVTVSS” the “polyreactivity (PSR sort gate)” value was “low polyreactivity”.
In the case of “QVQLVESGGGVVQAGGSLRLSCAASGSIFRYYTRGGYRQAPGKVRELVAAISRSGGSTYYADSVKGRFTISRDNAKNTVYLQMNSLKPEDTAVYYCAARYKRAQGYREGDYWGQGTQVTVSS”, the “polyreactivity (PSR sort gate)” value is reported as “high polyreactivity”.
In the case of “QVQLVESGGGVVQAGGSLRLSCAASGSTFGWYALGWYRQAPGKERELVAAITSGGSTKYADSVKGRFTISRDNAKNTVVLQMNSLKTEDTAVYYCDTVRGYYSPVLVIGYYWGQGTQVTVSS”, the “polyreactivity (PSR sort gate)” value is reported as “high polyreactivity”.
With “QVQLVESGGGVVQAGGSLRLSCAASGSTFLLYDMGWYRQAPGKERELVARISSGDSTNYADSVKGRFTISRDNAKNTVYLLMNSLIPEDTAVYYCAAEGGVQEFDYWGQGTQVTVSS” the “polyreactivity (PSR sort gate)” value was “low polyreactivity”.
In the case of “QVQLVESGGGVVQAGGSLRLSCAASGSTFLVNAMGWYRQAPGKERELVAAISRSTGSTYYADSVKGRFTISRDNAKNSVYLQMNSLKPEDTAVYYCAVYRHGYGYNYWGQGTQVTVSS”, the “polyreactivity (PSR sort gate)” value is reported as “high polyreactivity”.
With “QVQLVESGGGVVQAGGSLRLSCAASGSTFVFYTMGWSRQAPGKEREFVASISGSGGSTYYADSVKGRFTISRDNAKNTVYLQMNSLKPEDTAVYYCAAGYPYYYWTPYYYWGQGTQVTVSS” the “polyreactivity (PSR sort gate)” value was “high polyreactivity”.
In the case of “QVQLVESGGGVVQAGGSLRLSCAASGSTFYLTVLGWYRKAPGKERELVAASSSSGGSTYYADSVKGRFTISRDNAKNTVYLQMNSLKPEDTAVYYCNKVSAFPHYSGYAYWGQGTQVPVSS”, the “polyreactivity (PSR sort gate)” value is reported as “low polyreactivity”.
With “QVQLVESGGGVVQAGGSLRLSCAASGSTMGYYAMGWYRPAPGKERELVATITRSGGNTYYADSVKGRFTISRDNAKNTVYLQMNSLKPDDNAVYYCAARRLYGSQRGYWGHGTQVTVSS” the “polyreactivity (PSR sort gate)” value was “high polyreactivity”.
In the case of “QVQLVESGGGVVQAGGSLRLSCAASGSTSGIYAMGWYRQAPGKERELVAAIDTYGGSTYADSVKGRFTISRDNAKNTVYLQMNSVKPEDTAVYYCAKPFSSNSWSHGYCGQGTQVTVSS”, the “polyreactivity (PSR sort gate)” value is reported as “low polyreactivity”.
With “QVQLVESGGGVVQAGGSLRLSCAASGYTFLPYAMGWYRQAPGNARELVAAITVRGGRTYDADAVKGRFTISRHNAKKTVYLQMNSLKPEDTAVYYCHTDAYRLGYDYWGPGTQVTVSS” the “polyreactivity (PSR sort gate)” value was “high polyreactivity”.
In the case of “QVQLVESGGGVVQAGGSLRLSCAASRRTFTYYDMGWYRQAPGKERELVAGITARGGSTYADSVKGRFTISRDNAKNTVYLQMNSLKPEDTAVYYCAADLYTSLDSTYVYWGQGTQVTLSS”, the “polyreactivity (PSR sort gate)” value is reported as “low polyreactivity”.
With “QVQLVESGGGVVQAGGSLRLSCAATGRTFWRYAMGGYIQAPGKERELVASISVSGGTTYYAYSVKGRFTISRDHAKNTVYLQMNSLKPEDTAVYYCAARYGSIYSILYYRFVYWGQGTQVTVSS” the “polyreactivity (PSR sort gate)” value was “high polyreactivity”.
With “QVQLVESGGGVVQAGGSLRLSCAAYRSIFLFKAMGWYRQATGKERELVAAINRDDSTYYADSVKGRFTISRDNAKNTVYLQMNSLKPEDTAVYYCAAPVLHASYGYGYWGQGTQVTVSS” the “polyreactivity (PSR sort gate)” value was “low polyreactivity”.
With “QVQLVESGGGVVQAGGSLRLTCAASGIIFYRYSMGWYSQAPGKERELVAAISIGGGSTYYADSVKVRFTISRYNAKNTVYLEMNSLKPEDTAVYYCAADTYNYVGYNGHDYWGQGTQVTVSS” the “polyreactivity (PSR sort gate)” value was “low polyreactivity”.
For “QVQLVESGGGVVQAGGSLRVSCAASGRIFAPYAMGWYRQAPGKERELVAAISWRGSSTYYADSVKGRFTISRDNAKNTVSLQMNSLKPEDTAVYYCAAPSSKYWGQGTQVTVSS”, the “polyreactivity (PSR sort gate)” value was “low polyreactivity”.
In the case of “QVQLVESGGGVVQAGGTLLLICAASGSTFIVNAMVWYRQAPRKERELVAAITGSGGNTYYADSVKGRFTISRDNAKNTVYLQINTLKPEDTAVYYCAAETYYGRIYWYIRDYWGQGTQVSVSS”, the “polyreactivity (PSR sort gate)” value is reported as “low polyreactivity”.
In the case of “QVQLVESGGGVVQAGVSLRLSCAASGFTSHGYAKGWYRQAPGQERELVAAIDSVGSTYYADSVKGRFTISRDNSKNTVYLQMNSLKQEDTAVYYCAARRKRVSFYQEYDYWGQGTQVTVSS”, the “polyreactivity (PSR sort gate)” value is reported as “low polyreactivity”.
With “QVQLVESGGLIVQAGRSIRLTCAASGSIFYSYPMGWYRQAPGKERELVAAIRFSRGTTYYADSVKGRFTISRDNAKNTVYLQMNSLKPEDTAVYYCAATLSSYSYLFEYDYWGQCTQVTVSS” the “polyreactivity (PSR sort gate)” value was “low polyreactivity”.
For “QVQLVESGGLLVQAGGSLRLSCAASGFNFYNYAMGWYRQAPGKERELVAAISKRGGRTYYADSVKGRFTISRDNAKITVYLQMNRLKPVDTAVYYCNTDAVRPYHVAWYDYWGQGTQVTVSS”, the “polyreactivity (PSR sort gate)” value was “high polyreactivity”.
In the case of “QVQLVESGGLLVQAGGSLRLSCAASGRIFNYNAMGWYRQAPGKERELVAAIDSGGRTNYADSVKARFTISRDNAKNTGYLQMNSLKPEDTAVYYCNREAAHGSLRWTEMEYWGQGTQVTVSS”, the “polyreactivity (PSR sort gate)” value is reported as “low polyreactivity”.
For “QVQLVESGGLLVQAGGSLRLSCAASGRISPKNAMGWYRQAPGKERELVATIRKIGGRTYYADSVKGRFTISRDNAKNTVYLQMNSLKTEDTAVYYCATDFAPSYYPDRFDYWGQGTQVTVSS”, the “polyreactivity (PSR sort gate)” value was “low polyreactivity”.
For “QVQLVESGGLLVQAGGSLSLSCAASGRTFTPNAMGWYRQAPGKEREFVAAITYYGGSTRYADSVKGRFTISRDNAKNTVYLQMNSLIPEDTAVYYCAADVHYRYFYSWSSYSGYGYWGQGTQVTVSS”, the “polyreactivity (PSR sort gate)” value was “low polyreactivity”.
With “QVQLVESGGRIVQAGGSLRLSCAASGSTFYPYAMGWSRPAPGKEGQFVAAITWSGGSTYADSVKGRFTISRDNAKNTVYLQMNSLKPEDTAVYYCAAQPFVIEGGYRGDYWGQGTQETVSS” the “polyreactivity (PSR sort gate)” value was “low polyreactivity”.
In the case of “QVQLVESGGRLFQAGGSLRLICAASGSIFVYNTKGWYRQSPGKERELVASISYSGGPTYYADSVKGRFTISRDNAKNTVYLQMKSLNPEDTAVYYCAADVRQRGIYGPGPHYYWGQGTQVTVSS”, the “polyreactivity (PSR sort gate)” value is reported as “high polyreactivity”.
In the case of “QVQLVESGGRLVKAGGSLRLSCAASGRNFFYYTMAWYRQAPGKERELVATISWRGGSTYYADSVKGRFTFSRDNAKNTDYLLMNSLKPEETAVYYCAARYRCRYDSWGQGTQVTVSS”, the “polyreactivity (PSR sort gate)” value is reported as “high polyreactivity”.
In the case of “QVQLVESGGRLVQAGGRLRLSCAASGNIFYGYAMGWYRQAPGKERELVARINWSGSRTYYADTVKGRFTISRDNAKNTVYLQMNSLNPEDTAVYYCNTSTSRVPGNGDYWGQGTQVTVSS”, the “polyreactivity (PSR sort gate)” value is reported as “high polyreactivity”.
In the case of “QVQLVESGGRLVQAGGSHRLSCAASGFIFYDYAMGWYIQAPGKERELVAVITRGGSTYYADSVKGRFTISRDNAKNTVYLLMNSLKPEDTAVYYCAAYWFTPGFTFDYWGQGTQVTVSS”, the “polyreactivity (PSR sort gate)” value is reported as “low polyreactivity”.
For “QVQLVESGGRLVQAGGSHRLSCAASGRTFNVYAMGWYRQAPGKERELVASISSSDTTNYADSVKGRFTISRDNAKNTVYLQMNSLKPEDTAVYYCAADYTPDLLSKVDYCGQGTQVTVSS”, the “polyreactivity (PSR sort gate)” value was “low polyreactivity”.
For “QVQLVESGGRLVQAGGSHRLSCAASGRTFVENAMGWYRQAPGQEREFVAAISSSGDSTYYADSVKGRFTISRDNEKYTVYLKMNSLNPEDTAVYYCAARVYSRGLFYWGEGTQVTVSS”, the “polyreactivity (PSR sort gate)” value was “low polyreactivity”.
For “QVQLVESGGRLVQAGGSIRLSCAASGRIFTDNAMGWYRQAPGKERELVAAISWDGSSTSYADSVKGRFTISRDNAKNTVYLQMNSLQPEDTAVYYCAASGVGTNHYGYWNESDYWGQGTQVTVSS”, the “polyreactivity (PSR sort gate)” value was “low polyreactivity”.
In the case of “QVQLVESGGRLVQAGGSIRLSCAASGRTFYNNAMGWYRQAPGKERELVAAISSGGSTYYADSVKGRFTISRDNAKNTVYLQMNSLKPEDTAVYYCNVRRGGWGYRYYYWGQGNQVTVSS”, the “polyreactivity (PSR sort gate)” value is reported as “high polyreactivity”.
With “QVQLVESGGRLVQAGGSLLLSCAASGRIFRLYAMGWNTQAPGKERQLVASISSTGRTNYADSVKGRFTISRDNAKNTVYLQMNCLKPEDTAVYYCNAAVIYRYSQWDYGYWGLGTQVTVSS” the “polyreactivity (PSR sort gate)” value was “high polyreactivity”.
With “QVQLVESGGRLVQAGGSLLLSCAASGSTIGYYDMGWYRQAPGKERELVASITKSGGTTRYADSVKGRFTISRDNAKNTVYLQMNSLKPEDTAVYYCNADRSLLYSRKIEYDYWGQGTQVTVRS” the “polyreactivity (PSR sort gate)” value was “low polyreactivity”.
In the case of “QVQLVESGGRLVQAGGSLRISCAASGRTFRYYAKGWYRQAPGKERELVAAISSRGTRTYYADSVKGRFTISRDNAKNTGYLQMNSLKPEDTAVYYCATRYYQELAYDFWGQGTQVIVSS”, the “polyreactivity (PSR sort gate)” value is reported as “high polyreactivity”.
For “QVQLVESGGRLVQAGGSLRLICAASGLIFYHNAMGWYRQAPGKERELVAAITASGGSTYYADSVKGRFTISRDNAKNTVYLQMNSLKPEDTAVYSCSADGPLDSDLDYWGQGTQVTVSS”, the “polyreactivity (PSR sort gate)” value was “low polyreactivity”.
With “QVQLVESGGRLVQAGGSLRLRCAASGFTFGYNDMGWYRPAPGKERELLAGIRSGDDTNYADSVKGRFTISRDNAKNTDYLQMNSLKPEDTAVYYCAADVVNIATAEYDYCGQGTQVTVSS” the “polyreactivity (PSR sort gate)” value was “low polyreactivity”.
In the case of “QVQLVESGGRLVQAGGSLRLSCAASGFIFAVYAMGSYRQAPGKECELVAAISRSSGSTYYADSVKGRFTISRHNAKNTVYLQMNSLKPEDTAVYYCAAVFLYRGYAQYDYWGQGTQVTVSS”, the “polyreactivity (PSR sort gate)” value is reported as “high polyreactivity”.
In the case of “QVQLVESGGRLVQAGGSLRLSCAASGFIFQYYTMGWYRQAPGKERELVAGISRSGGSTYYADSVKGRFTISRDNAKNTVYLQMNSLKPEDTAVYYCAAKIRTSDMGYWGQGTQVTVSS”, the “polyreactivity (PSR sort gate)” value is reported as “high polyreactivity”.
In the case of “QVQLVESGGRLVQAGGSLRLSCAASGFTFKYYAMGWYTQAPGKERELVAAIRRSAGSTNYADSVKGRFTISRDNAKNTVYLQMNSLKPEDTAVYYCNTVGTRQPMDYWGQGTQVTVSS”, the “polyreactivity (PSR sort gate)” value is reported as “high polyreactivity”.
For “QVQLVESGGRLVQAGGSLRLSCAASGGIFPPNAKGWYRQAPGKERELVASISSDGSTNYADSVKGRFTISRDNAKNTVYLQMNSLKPEDTAVYYCAADSTTSWARLHVRRFYYWGQGTQVTVSS”, the “polyreactivity (PSR sort gate)” value was “low polyreactivity”.
For “QVQLVESGGRLVQAGGSLRLSCAASGISFNYYAMGWYRQAPGKEREMVAGITSGGSTYYADSVKGRFTISRDNAKNTVYLQMNSLKTEDTAVYYCATRVRDGSQTPYRRGHSYDYWGQGTQVTVSS”, the “polyreactivity (PSR sort gate)” value was “high polyreactivity”.
With “QVQLVESGGRLVQAGGSLRLSCAASGITFGNAMGWYRQAPGKERELVAGITFSSGSTYYADSVKGRFTISRDNAKNTVYLLMNSLKPEDTAVYYCATDSSKHPYSPTLLKFDYWGQGTQVTVSS” the “polyreactivity (PSR sort gate)” value was “low polyreactivity”.

Reference: the nanobody polyreactivity screen of Harvey et al. (2022)
